Reference: patent US20180155451A1 (published 2018)

T1: FcγRIIa R (human, UniProt P12318 34-217)
T1 construct: extracellular domain; also called FcgRIIa R type; 2aR
T1 sequence (looked up): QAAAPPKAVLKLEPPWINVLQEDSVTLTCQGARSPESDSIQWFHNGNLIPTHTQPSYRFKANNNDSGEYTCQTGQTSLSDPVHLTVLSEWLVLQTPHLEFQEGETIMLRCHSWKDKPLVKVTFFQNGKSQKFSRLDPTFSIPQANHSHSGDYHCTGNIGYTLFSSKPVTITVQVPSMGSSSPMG

T2: FcγRIIb (human, UniProt P31994 43-217)
T2 construct: extracellular domain; also called FcgRIIb; 2b
T2 sequence (looked up): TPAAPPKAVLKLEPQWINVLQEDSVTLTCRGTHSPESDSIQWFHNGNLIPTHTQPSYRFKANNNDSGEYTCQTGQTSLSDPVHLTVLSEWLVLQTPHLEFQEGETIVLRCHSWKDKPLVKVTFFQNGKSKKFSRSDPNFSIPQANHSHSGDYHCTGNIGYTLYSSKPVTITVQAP

B1: GpH7-A5/GpH7-B3 variant D265_16H/GpL16-k0 (antibody, human IgG1, kappa)
heavy 1: not shown
heavy 2: not shown
light: DIVMTQSPLSLPVTPGEPASISCQASESLVHSNRNTYLHWYLQKPGQSPQLLIYKVSNRFSGVPDRFSGSGSGTDFTLKISRVEAEDVGVYYCSQNTHVPPTFGQGTKVEIERTVAAPSVFIFPPSDEQLKSGTASVVCLLNNFYPREAKVQWKVDNALQSGNSQESVTEQDSKDSTYSLSSTLTLSKADYEKHKVYACEVTHQGLSSPVTKSFNRGEC
notes: heterodimerized antibody, mutation in the GpH7-B3 chain only; also called He Ab
B2: GpH7-A5/GpH7-B3 variant Q295_03V/GpL16-k0 (antibody, human IgG1, kappa)
heavy 1: not shown
heavy 2: not shown
light: B1 light
notes: as for B1
B3: GpH7-A5/GpH7-B3 variant E269_04F/GpL16-k0 (antibody, human IgG1, kappa)
heavy 1: not shown
heavy 2: not shown
light: B1 light
notes: as for B1
B4: GpH7-A5/GpH7-B3 variant D265_18N/GpL16-k0 (antibody, human IgG1, kappa)
heavy 1: not shown
heavy 2: not shown
light: B1 light
notes: as for B1
B5: GpH7-A5/GpH7-B3 variant E269_16H/GpL16-k0 (antibody, human IgG1, kappa)
heavy 1: not shown
heavy 2: not shown
light: B1 light
notes: as for B1
B6: GpH7-A5/GpH7-B3 variant E269_02A/GpL16-k0 (antibody, human IgG1, kappa)
heavy 1: not shown
heavy 2: not shown
light: B1 light
notes: as for B1
B7: GpH7-A5/GpH7-B3 variant E269_14T/GpL16-k0 (antibody, human IgG1, kappa)
heavy 1: not shown
heavy 2: not shown
light: B1 light
notes: as for B1
B8: GpH7-A5/GpH7-B3 variant E269_07I/GpL16-k0 (antibody, human IgG1, kappa)
heavy 1: not shown
heavy 2: not shown
light: B1 light
notes: as for B1
B9: GpH7-A5/GpH7-B3 variant Q295_11K/GpL16-k0 (antibody, human IgG1, kappa)
heavy 1: not shown
heavy 2: not shown
light: B1 light
notes: as for B1
B10: GpH7-A5/GpH7-B3 variant E269_18N/GpL16-k0 (antibody, human IgG1, kappa)
heavy 1: not shown
heavy 2: not shown
light: B1 light
notes: as for B1
B11: GpH7-A5/GpH7-B3 variant E269_19Q/GpL16-k0 (antibody, human IgG1, kappa)
heavy 1: not shown
heavy 2: not shown
light: B1 light
notes: as for B1
B12: GpH7-A5/GpH7-B3 variant P271_04F/GpL16-k0 (antibody, human IgG1, kappa)
heavy 1: not shown
heavy 2: not shown
light: B1 light
notes: as for B1
B13: GpH7-A5/GpH7-B3 variant E269_03V/GpL16-k0 (antibody, human IgG1, kappa)
heavy 1: not shown
heavy 2: not shown
light: B1 light
notes: as for B1
B14: GpH7-A5/GpH7-B3 variant E269_06M/GpL16-k0 (antibody, human IgG1, kappa)
heavy 1: not shown
heavy 2: not shown
light: B1 light
notes: as for B1
B15: GpH7-A5/GpH7-B3 variant Q295_04F/GpL16-k0 (antibody, human IgG1, kappa)
heavy 1: not shown
heavy 2: not shown
light: B1 light
notes: as for B1
B16: GpH7-A5/GpH7-B3 variant E269_08L/GpL16-k0 (antibody, human IgG1, kappa)
heavy 1: not shown
heavy 2: not shown
light: B1 light
notes: as for B1
B17: GpH7-A5/GpH7-B3 variant D265_19Q/GpL16-k0 (antibody, human IgG1, kappa)
heavy 1: not shown
heavy 2: not shown
light: B1 light
notes: as for B1
B18: GpH7-A5/GpH7-B3 variant Q295_05P/GpL16-k0 (antibody, human IgG1, kappa)
heavy 1: not shown
heavy 2: not shown
light: B1 light
notes: as for B1
B19: GpH7-A5/GpH7-B3 variant H268_06M/GpL16-k0 (antibody, human IgG1, kappa)
heavy 1: not shown
heavy 2: not shown
light: B1 light
notes: as for B1
B20: GpH7-A5/GpH7-B3 variant E269_15Y/GpL16-k0 (antibody, human IgG1, kappa)
heavy 1: not shown
heavy 2: not shown
light: B1 light
notes: as for B1
B21: GpH7-A5/GpH7-B3 variant E269_11K/GpL16-k0 (antibody, human IgG1, kappa)
heavy 1: not shown
heavy 2: not shown
light: B1 light
notes: as for B1
B22: GpH7-A5/GpH7-B3 variant Q295_12R/GpL16-k0 (antibody, human IgG1, kappa)
heavy 1: not shown
heavy 2: not shown
light: B1 light
notes: as for B1
B23: GpH7-A5/GpH7-B3 variant E269_13S/GpL16-k0 (antibody, human IgG1, kappa)
heavy 1: not shown
heavy 2: not shown
light: B1 light
notes: as for B1
B24: GpH7-A5/GpH7-B3 variant P271_20W/GpL16-k0 (antibody, human IgG1, kappa)
heavy 1: not shown
heavy 2: not shown
light: B1 light
notes: as for B1
B25: GpH7-A5/GpH7-B3 variant P271_15Y/GpL16-k0 (antibody, human IgG1, kappa)
heavy 1: not shown
heavy 2: not shown
light: B1 light
notes: as for B1
B26: GpH7-A5/GpH7-B3 variant H268_08L/GpL16-k0 (antibody, human IgG1, kappa)
heavy 1: not shown
heavy 2: not shown
light: B1 light
notes: as for B1
B27: GpH7-A5/GpH7-B3 variant H268_11K/GpL16-k0 (antibody, human IgG1, kappa)
heavy 1: not shown
heavy 2: not shown
light: B1 light
notes: as for B1
B28: GpH7-A5/GpH7-B3 variant E269_20W/GpL16-k0 (antibody, human IgG1, kappa)
heavy 1: not shown
heavy 2: not shown
light: B1 light
notes: as for B1
B29: GpH7-A5/GpH7-B3 variant Q295_01G/GpL16-k0 (antibody, human IgG1, kappa)
heavy 1: not shown
heavy 2: not shown
light: B1 light
notes: as for B1
B30: GpH7-A5/GpH7-B3 variant E269_12R/GpL16-k0 (antibody, human IgG1, kappa)
heavy 1: not shown
heavy 2: not shown
light: B1 light
notes: as for B1

Key:
FcγRIIa R [1] = target: T1, FcγRIIa R; assay: SPR; He/Con_2aR divided by He/Con_2b (FcγRIIb as reference)
Procedure: (§1) The heterodimerized antibodies He Abs in which one of the H chains was introduced with an alteration were assayed for their binding activities to each activating FcγR and inhibitory FcγR according to the method described in Example 4. […] The activating FcγRs in FIGS. 26, 27, 28, and 29 are FcγRIa, FcγRIIa (R), FcγRIIa (H), and FcγRIIIa, respectively.
(§2) Analysis of interaction between objective antibody and the FcγR was carried out using Biacore T100 (GE Healthcare). HBS-EP+ (GE Healthcare) was used as the running buffer, and the measurement temperature was set to 25° C. Chips produced by immobilizing the antigen peptide by the amine coupling method to a Series S Sencor Chip CM5 (GE Healthcare), or alternatively, chips produced by allowing preliminarily biotinylated antigen peptides to interact with and immobilize onto a Series S Sensor Chip SA (certified) (GE Healthcare) were used. Antibodies of interest were captured onto an antigen peptide-immobilized chip, and allowed to interact to each FcγR diluted with running buffer. To regenerate and repeatedly use the chip, the antibodies captured on the chip were washed off by reacting 10 mM glycine-HCl, pH 1.5.

FcγRIIa R [2] = target: T1, FcγRIIa R; assay: SPR (Biacore), antibody captured, FcγR as analyte; relative binding
Procedure: as §1, §2

FcγRIIb = target: T2, FcγRIIb; assay: as above
Procedure: as §1, §2

Binder	IIaR/IIb (He_2aR/2b) (FcγRIIa R [1])	He/Con_2aR (IIaR binding) (FcγRIIa R [2])	He/Con_2b (IIb binding) (FcγRIIb)
B1	1.51 ratio	58 % of GpH7-A5/GpH7-B3/GpL16-k0 (=100)	38.3 % of GpH7-A5/GpH7-B3/GpL16-k0 (=100)
B2	1.2 ratio	91.2 % of GpH7-A5/GpH7-B3/GpL16-k0 (=100)	75.7 % of GpH7-A5/GpH7-B3/GpL16-k0 (=100)
B3	1.29 ratio	58.2 % of GpH7-A5/GpH7-B3/GpL16-k0 (=100)	45 % of GpH7-A5/GpH7-B3/GpL16-k0 (=100)
B4	2.02 ratio	12.4 % of GpH7-A5/GpH7-B3/GpL16-k0 (=100)	6.1 % of GpH7-A5/GpH7-B3/GpL16-k0 (=100)
B5	1.32 ratio	50.7 % of GpH7-A5/GpH7-B3/GpL16-k0 (=100)	38.5 % of GpH7-A5/GpH7-B3/GpL16-k0 (=100)
B6	1.31 ratio	65.3 % of GpH7-A5/GpH7-B3/GpL16-k0 (=100)	49.9 % of GpH7-A5/GpH7-B3/GpL16-k0 (=100)
B7	1.3 ratio	66 % of GpH7-A5/GpH7-B3/GpL16-k0 (=100)	50.6 % of GpH7-A5/GpH7-B3/GpL16-k0 (=100)
B8	1.34 ratio	58.8 % of GpH7-A5/GpH7-B3/GpL16-k0 (=100)	43.9 % of GpH7-A5/GpH7-B3/GpL16-k0 (=100)
B9	1.26 ratio	88.9 % of GpH7-A5/GpH7-B3/GpL16-k0 (=100)	70.4 % of GpH7-A5/GpH7-B3/GpL16-k0 (=100)
B10	1.32 ratio	59.2 % of GpH7-A5/GpH7-B3/GpL16-k0 (=100)	44.8 % of GpH7-A5/GpH7-B3/GpL16-k0 (=100)
B11	1.31 ratio	57.8 % of GpH7-A5/GpH7-B3/GpL16-k0 (=100)	44.3 % of GpH7-A5/GpH7-B3/GpL16-k0 (=100)
B12	1.28 ratio	75.9 % of GpH7-A5/GpH7-B3/GpL16-k0 (=100)	59.5 % of GpH7-A5/GpH7-B3/GpL16-k0 (=100)
B13	1.3 ratio	58.8 % of GpH7-A5/GpH7-B3/GpL16-k0 (=100)	45.1 % of GpH7-A5/GpH7-B3/GpL16-k0 (=100)
B14	1.32 ratio	61.7 % of GpH7-A5/GpH7-B3/GpL16-k0 (=100)	46.7 % of GpH7-A5/GpH7-B3/GpL16-k0 (=100)
B15	1.29 ratio	83.6 % of GpH7-A5/GpH7-B3/GpL16-k0 (=100)	64.7 % of GpH7-A5/GpH7-B3/GpL16-k0 (=100)
B16	1.33 ratio	57.2 % of GpH7-A5/GpH7-B3/GpL16-k0 (=100)	42.9 % of GpH7-A5/GpH7-B3/GpL16-k0 (=100)
B17	1.64 ratio	54.8 % of GpH7-A5/GpH7-B3/GpL16-k0 (=100)	33.4 % of GpH7-A5/GpH7-B3/GpL16-k0 (=100)
B18	1.3 ratio	87.4 % of GpH7-A5/GpH7-B3/GpL16-k0 (=100)	67.5 % of GpH7-A5/GpH7-B3/GpL16-k0 (=100)
B19	1.23 ratio	81 % of GpH7-A5/GpH7-B3/GpL16-k0 (=100)	65.7 % of GpH7-A5/GpH7-B3/GpL16-k0 (=100)
B20	1.29 ratio	57.6 % of GpH7-A5/GpH7-B3/GpL16-k0 (=100)	44.7 % of GpH7-A5/GpH7-B3/GpL16-k0 (=100)
B21	2.14 ratio	38.1 % of GpH7-A5/GpH7-B3/GpL16-k0 (=100)	17.8 % of GpH7-A5/GpH7-B3/GpL16-k0 (=100)
B22	1.27 ratio	83 % of GpH7-A5/GpH7-B3/GpL16-k0 (=100)	65.2 % of GpH7-A5/GpH7-B3/GpL16-k0 (=100)
B23	1.28 ratio	61.2 % of GpH7-A5/GpH7-B3/GpL16-k0 (=100)	47.8 % of GpH7-A5/GpH7-B3/GpL16-k0 (=100)
B24	1.33 ratio	77.3 % of GpH7-A5/GpH7-B3/GpL16-k0 (=100)	58.1 % of GpH7-A5/GpH7-B3/GpL16-k0 (=100)
B25	1.35 ratio	70.7 % of GpH7-A5/GpH7-B3/GpL16-k0 (=100)	52.3 % of GpH7-A5/GpH7-B3/GpL16-k0 (=100)
B26	1.25 ratio	85 % of GpH7-A5/GpH7-B3/GpL16-k0 (=100)	67.8 % of GpH7-A5/GpH7-B3/GpL16-k0 (=100)
B27	1.21 ratio	100 % of GpH7-A5/GpH7-B3/GpL16-k0 (=100)	83 % of GpH7-A5/GpH7-B3/GpL16-k0 (=100)
B28	1.3 ratio	55.5 % of GpH7-A5/GpH7-B3/GpL16-k0 (=100)	42.5 % of GpH7-A5/GpH7-B3/GpL16-k0 (=100)
B29	1.32 ratio	60.9 % of GpH7-A5/GpH7-B3/GpL16-k0 (=100)	46 % of GpH7-A5/GpH7-B3/GpL16-k0 (=100)
B30	1.39 ratio	35 % of GpH7-A5/GpH7-B3/GpL16-k0 (=100)	25.2 % of GpH7-A5/GpH7-B3/GpL16-k0 (=100)
